Results taken from US20180344812A1 (Scripps Research, published 2018).
Bridges are numbered along the chain shown (N, C = ends). Primed or numbered codes have the meaning given here. Where no end group is shown, it is not given here. [ ]: non-standard residue; d: D form. L1″ = C4 bis(bromoacetamide) staple without lipid, joins two Cys through thioethers; L4″ = octadecanedioic acid-PEG-ornithine staple, joins two Cys through thioethers; L2″ = myristic acid-PEG-ornithine staple, joins two Cys through thioethers; L6″ = as L5, made on Rink amide resin, joins two Cys through thioethers; L1 = C4 bis(bromoacetamide) staple without lipid; L4 = octadecanedioic acid-PEG-ornithine staple; L5 = C18 diacid-Lys-PEG2-ornithine staple; L2 = myristic acid-PEG-ornithine staple; L6 = made as L5 but on Rink amide resin; L11 = not defined here; L12 = not defined here; L13 = not defined here; L7 = not defined here; L8 = not defined here; L9 = not defined here

B1: mTA 21: OXM (B) and L8 (peptide)
peptide: H[dS]QGTFTSDYSKYLDECAAKEFICWLMNTKRNRNNIA
modifications: linker 17-24 via L8; reading uncertain; also: printed as HsQGTFTSDYSKYLDEXAAKEFIXWLMNTKRNRNNIA
B2: mTA 24: OXM (B) and L11 (peptide)
peptide: H[dS]QGTFTSDYSKYLDECAAKEFICWLMNTKRNRNNIA
modifications: linker 17-24 via L11; reading uncertain; also: printed as HsQGTFTSDYSKYLDEXAAKEFIXWLMNTKRNRNNIA
B3: mTA 26: OXM (B) and L13 (peptide)
peptide: H[dS]QGTFTSDYSKYLDECAAKEFICWLMNTKRNRNNIA
modifications: linker 17-24 via L13; reading uncertain; also: printed as HsQGTFTSDYSKYLDEXAAKEFIXWLMNTKRNRNNIA
B4: mTA 20: OXM (B) and L7 (peptide)
peptide: H[dS]QGTFTSDYSKYLDECAAKEFICWLMNTKRNRNNIA
modifications: linker 17-24 via L7; reading uncertain; also: printed as HsQGTFTSDYSKYLDEXAAKEFIXWLMNTKRNRNNIA
B5: mTA 25: OXM (B) and L12 (peptide)
peptide: H[dS]QGTFTSDYSKYLDECAAKEFICWLMNTKRNRNNIA
modifications: linker 17-24 via L12; reading uncertain; also: printed as HsQGTFTSDYSKYLDEXAAKEFIXWLMNTKRNRNNIA
B6: mTA 22: OXM (B) and L9 (peptide)
peptide: H[dS]QGTFTSDYSKYLDECAAKEFICWLMNTKRNRNNIA
modifications: linker 17-24 via L9; not fully specified; printed as HsQGTFTSDYSKYLDEXAAKEFIXWLMNTKRNRNNIA; reading uncertain

Key:
[1] = molecular target: human glucagon-like peptide 1 receptor (GLP-1R) (human, UniProt P43220 24-463); test: cell-based or functional assay
[2] = molecular target: human glucagon receptor (GCGR) (human, UniProt P47871 26-477); test: cell-based or functional assay
Sequence of human glucagon receptor (GCGR) (P47871 26-477): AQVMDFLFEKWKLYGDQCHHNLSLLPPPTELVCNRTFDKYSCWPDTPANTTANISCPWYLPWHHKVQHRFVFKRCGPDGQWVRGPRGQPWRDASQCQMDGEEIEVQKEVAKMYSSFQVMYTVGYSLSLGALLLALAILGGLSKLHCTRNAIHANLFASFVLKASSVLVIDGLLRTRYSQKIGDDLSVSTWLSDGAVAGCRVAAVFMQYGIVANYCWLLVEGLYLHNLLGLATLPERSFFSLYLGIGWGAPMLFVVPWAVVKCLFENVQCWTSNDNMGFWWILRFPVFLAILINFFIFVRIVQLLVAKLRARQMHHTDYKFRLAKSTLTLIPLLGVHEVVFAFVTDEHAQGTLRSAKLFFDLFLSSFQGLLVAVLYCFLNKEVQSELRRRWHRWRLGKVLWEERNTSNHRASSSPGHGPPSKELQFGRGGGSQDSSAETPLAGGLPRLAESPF

| Binder | EC50, CRE-luciferase reporter in HEK293-GLP-1R-CRE cells [1] | EC50, CRE-luciferase reporter in HEK293-GCGR-CRE cells [2] |
| --- | --- | --- |
| H[dS]QGTFTSDYSKYLDECAAKEFICWLLRAGPSSGAPPPS (linker 17-24 via L6) [mTA 36: GLP-1/Glucagon (C) and L6] | 0.3 nM | 0.5 nM |
| H[dS]QGTFTSDYSKYLDECAAKEFICWLLRA (linker 17-24 via L5) [mTA 32: GLP-1/Glucagon (B) and L5] | 0.3 nM | 1 nM |
| B1 | 0.12 nM | 0.7 nM |
| B2 | 0.2 nM | 3 nM |
| H[dS]QGTFTSDYSKYLDECAAKEFICWLMNTKRNRNNIA (linker 17-24 via L5) [mTA 18: OXM (B) and L5] | 0.2 nM |  |
| H[dS]QGTFTSDYSKYLDECAAKEFICWLLRA (linker 17-24 via L2) [mTA 30: GLP-1/Glucagon (B) and L2] | 0.03 nM | 0.05 nM |
| B3 | 0.05 nM | 0.5 nM |
| H[dS]QGTFTSDYSKYLDECAAKEFICWLMNTKRNRNNIA (linker 17-24 via L4″) [mTA 17: OXM (B) and L4] | 2 nM | 3 nM |
| H[dS]QGTFTSDYSKYLDSCAAHDFVCWLLRA (linker 17-24 via L2) [mTA 28: GLP-1/Glucagon (A) and L2] | 0.1 nM | 0.1 nM |
| H[dS]QGTFTSDYSKYLDECAAKEFICWLMNTKRNRNNIA (linker 17-24 via L1″) [mTA 15: OXM (B) and L1] | 0.03 nM | 0.2 nM |
| H[dS]QGTFTSDYSKYLDECAAKEFICWLLRAGPSSGAPPPS (linker 17-24 via L5) [mTA 35: GLP-1/Glucagon (C) and L5] | 0.5 nM | 1 nM |
| B4 | 17 nM | 5.4 nM |
| H[dS]QGTFTSDYSKYLDECAAKEFICWLLRA (linker 17-24 via L4) [mTA 31: GLP-1/Glucagon (B) and L4] | 0.03 nM | 0.12 nM |
| H[dS]QGTFTSDYSKYLDECAAKEFICWLLNGGPSSGAPPPS (linker 17-24 via L5) [mTA 38: GLP-1/Glucagon (D) and L5] | 0.04 nM | 0.4 nM |
| H[dS]QGTFTSDYSKYLDECAAKEFICWLLNGGPSSGAPPPS (linker 17-24 via L4) [mTA 37: GLP-1/Glucagon (D) and L4] | 0.03 nM | 0.2 nM |
| H[dS]QGTFTSDYSKYLDECAAKEFICWLMNTKRNRNNIA (linker 17-24 via L6″) [mTA 19: OXM (B) and L6] | 0.2 nM |  |
| H[dS]QGTFTSDYSKYLDECAAKEFICWLLNGGPSSGAPPPS (linker 17-24 via L6) [mTA 39: GLP-1/Glucagon (D) and L6] | 0.04 nM | 0.3 nM |
| H[dS]QGTFTSDYSKYLDECAAKEFICWLMNTKRNRNNIA (linker 17-24 via L2″) [mTA 16: OXM (B) and L2] | 0.04 nM | 0.3 nM |
| B5 | 0.1 nM | 0.5 nM |
| H[dS]QGTFTSDYSKYLDECAAKEFICWLLRA (linker 17-24 via L1) [mTA 29: GLP-1/Glucagon (B) and L1] | 0.03 nM | 0.03 nM |
| B6 | 40 nM | 14 nM |
| H[dS]QGTFTSDYSKYLDSCAAHDFVCWLLRA (linker 17-24 via L1) [mTA 27: GLP-1/Glucagon (A) and L1] | 0.2 nM | 0.04 nM |
| H[dS]QGTFTSDYSKYLDECAAKEFICWLLRA (linker 17-24 via L6) [mTA 33: GLP-1/Glucagon (B) and L6] | 0.05 nM | 0.4 nM |
| H[dS]QGTFTSDYSKYLDECAAKEFICWLLRAGPSSGAPPPS (linker 17-24 via L4) [mTA 34: GLP-1/Glucagon (C) and L4] | 0.04 nM | 0.4 nM |
